# B1: F-box only protein 7 (Homo sapiens), Q9Y3I1 (parent)
# chain: MRLRVRLLKRTWPLEVPETEPTLGHLRSHLRQSLLCTWGYSSNTRFTITLNYKDPLTGDEETLASYGIVSGDLICLILQDDIPAPNIPSSTDSEHSSLQNNEQPSLATSSNQTSMQDEQPSDSFQGQAAQSGVWNDDSMLGPSQNFEAESIQDNAHMAEGTGFYPSEPMLCSESVEGQVPHSLETLYQSADCSDANDALIVLIHLLMLESGYIPQGTEAKALSMPEKWKLSGVYKLQYMHPLCEGSSATLTCVPLGNLIVVNATLKINNEIRSVKRLQLLPESFICKEKLGENVANIYKDLQKLSRLFKDQLVYPLLAFTRQALNLPDVFGLVVLPLELKLRIFRLLDVRSVLSLSAVCRDLFTASNDPLLWRFLYLRDFRDNTVRVQDTDWKELYRKRHIQRKESPKGRFVMLLPSSTHTIPFYPNPLHPRPFPSSRLPPGIIGGEYDQRPTLPYVGDPISSLIPGPGETPSQFPPLRPRFDPVGPLPGPNPILPGRGGPNDRFPFRPSRGRPTDGRLSFM
# Variants of: B1
# Conditions: with prkn_human PRKN
row,effect of a mutation on the interaction,Variant
1,disrupting interaction,T22M
